Like-named read-outs stand apart in the source and are kept apart here.
Legend:
[1] = system: mouse, rat, rabbit, and cynomolgus monkey ICAM-1; experiment: BI-505 cross-reactivity to ICAM-1 of animal species used for toxicological studies; type: binding; details: animals commonly used for toxicological evaluation
Description: The cross reactivity of BI-505 to mouse, rat, rabbit, and cynomolgus monkey ICAM-1 was investigated using several methods (i.e. immunohistochemistry, flow cytometry, and enzyme-linked immunosorbent assay [ELISA]) and sources of target protein (tissue, ICAM-1 transfected cells, endogenous ICAM-1 expressing cells, and recombinant ICAM-1 protein). Polyclonal anti-mouse ICAM-1, anti-rat ICAM-1, anti-rabbit ICAM-1, and anti-cynomolgus ICAM-1 antibodies were used as positive controls in experiments. Isotype control human IgG1 was used as negative control for BI-505 and species matched polyclonal IgG lacking specificity for ICAM-1 served as negative controls for ICAM-1 specific polyclonal antibodies.

[2] = mouse
Experimental: Blood samples collected from the vena cava were centrifuged at 2500 g for 15 min to obtain serum and the samples were stored at −20° C.
Sera were prepared from blood samples collected from the vena saphena from 3 animals in each group at different time-points during the course of in vivo experimentation. Briefly, ELISA plates were coated over night with human ICAM-1 protein. The following day, plates were incubated with the serum samples. Biotinylated goat-anti-BI-505 was used for detection of BI-505 in the serum samples. Sera were analysed by ELISA to determine BI-505 trough levels. Trough BI-505 serum concentrations were then plotted as a function of dose and were fitted using five parameter log-log curve and XLfit software (IDBS, Guildford, United Kingdom).

human target tumor cells = experiment: ADCC with human effector NK cells; type: cell-based
Experimental: NK cells were isolated from purified PBMCs using positive or negative NK cell-isolation kits (Miltenyi Biotec). Target cells were harvested and incubated in medium with or without the respective antibodies (2 μg/mL) for 60 min on ice before. NK cells were washed, diluted in ADCC medium and dispensed together with the respective antibody-coated target cells at varying effector/target cell ratios. All experiments were performed in triplicate. After incubation, TO-PRO-3 dye and counting beads (Invitrogen) were added and cells were analyzed for membrane permeabilization using flow cytometry.
Buffy coats from human donors (ordered through Blodcentralen, Lund) were used to isolate peripheral blood mononuclear cells (PBMCs), and subsequently natural killer (NK) cells. Briefly, peripheral blood components were separated using Ficoll-Paque PLUS (Amersham Biosciences, Sweden) in Leucosep tubes (Greiner Bio-One). […] The purity of the obtained NK cell fractions was >75% as determined by flow cytometry after staining with α-CD56 antibodies (BD Biosciences). […] After incubation, TO-PRO-3 dye and counting beads (Invitrogen) were added and cells were analyzed for membrane permeabilization using flow cytometry.

[3] = Single dose study in the rat (BI-505 pharmacokinetics); type: in vivo; details: for tmax: iv
Description: AUC0-tlast=area under the serum concentration-time curve from time zero to last quantifiable concentration; AUC0-∞=area under the serum concentration-time curve from time zero to infinity; Cmax=maximum observed serum concentration; tmax=time of maximum observed serum concentration; t1/2=apparent terminal elimination half-life; CL=total serum clearance; Vss=apparent volume of distribution at steady-state; Vz=apparent volume of distribution during the terminal elimination phase. There were six animals per sex and treatment group.
Rats (n=6 per sex and treatment, for a total of 36 rats) were given 0.5, 2.5 or 10 mg/kg BI-505 as a single i.v. treatment. Blood was drawn from the caudal vein of rats at the following time-points: pre-dose, 15 min, 30 min, 1 hr, 2 hr, 8 hr, 24 hr, 2 days, 3 days, 5 days, 8 days, 2 weeks and 3 weeks. BI-505 serum concentrations were determined by ELISA from 15-18 samples per time-point, collected from alternating animals. Pharmacokinetics was calculated from the individual animal serum concentration-time data of BI-505 using non-compartmental analyses. […]

[4] = system: other monitored peripheral blood leukocyte subsets; experiment: Flow-cytometric IgG binding, Ramos cells mixed with peripheral blood leukocytes; parameters: species or system human
Description: (§1) Washing was repeated twice.

monocyte cells = experiment: as above; parameters: species or system human
Description: as §1

[5] = system: peripheral blood B lymphocytes; experiment: as above; parameters: species or system human
Description: as §1

Ramos cells = experiment: as above; parameters: species or system human
Description: as §1

mouse FcγRIV = biological target: T1, mouse FcγRIV (Mus musculus, UniProt A0A0B4J1G0); experiment: BiaCore analysis of BI-505 Fc-variant binding to FcγR
T1 construct: made in house; host or cells: HEK293E cells (transient)
T1 sequence (A0A0B4J1G0 21-249): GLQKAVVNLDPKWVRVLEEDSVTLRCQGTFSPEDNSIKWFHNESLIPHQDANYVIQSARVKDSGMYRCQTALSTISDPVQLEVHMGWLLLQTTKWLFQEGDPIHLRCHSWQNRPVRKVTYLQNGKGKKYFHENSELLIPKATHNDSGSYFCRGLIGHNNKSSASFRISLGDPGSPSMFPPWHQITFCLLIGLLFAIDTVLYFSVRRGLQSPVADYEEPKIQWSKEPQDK
Experimental: (FIG. 20B) BiaCore analysis of BI-505 Fc-variant antibodies binding to mouse FcγRIV.
His-tagged human FcγRIIIa and mouse FcγRIV were transiently expressed in HEK293E cells, purified using Ni-NTA chromatography, and characterized by SDS-PAGE and/or Biacore. Surface plasmon resonance (SPR) measurements were performed using a Biacore 3000 instrument. Goat F(ab)′2 α-human-F(ab)′2 fragments (Jackson Laboratories) were immobilized with a CM-5 chip using a standard amine coupling protocol. BI-505 (IgG1) and IgG4 or IgG1 297Q variants of BI-505 were diluted to 15 and 60 μg/mL respectively and added to the surface at 10 μL/min for 3 min. His-tagged human FcγRIIIa or mouse FcγRIV was pre-incubated with an α-HIS antibody (R&D Systems) at a 2:1 molar ratio before addition to the chip surface, 30 μL/min, for 1 min. After each cycle the surface was regenerated twice with glycine buffer pH 1.7.

B1: B11: fully human IgG1 antibody specific for ICAM-1; VH and VL sequences of FIG. 10 (SEQ ID NOs. 6 and 8) (antibody, listed as Homo sapiens, V domains shown)
VH: EVQLLESGGGLVQPGGSLRLSCAASGFTFSNAWMSWVRQAPGKGLEWVAFIWYDGSNKYYADSVKGRFTISRDNSKNTLYLQMNSLRAEDTAVYYCARYSGWYFDYWGQGTLVTVSS
VL: QSVLTQPPSASGTPGQRVTISCTGSSSNIGAGYDVHWYQQLPGTAPKLLIYDNNNRPSGVPDRFSGSKSGTSASLAISGLRSEDEADYYCQSYDSSLSAWLFGGGTKLTVLG
cross-reactivity with animal ICAM-1 [1]: does not, however, cross-react | In vivo serum concentrations ([2]; 0.02 mg/kg): 0.06 ± 0.02 µg/mL | In vivo serum concentrations ([2]; 0.2 mg/kg): 1.2 ± 0.4 µg/mL | In vivo serum concentrations ([2]; 2 mg/kg): 20 ± 2.9 µg/mL | ADCC (human target tumor cells): conferred cytotoxicity in an Fc-dependent manner | Cmax ([3]; Males, 10 mg/kg single IV): 281 µg/mL | anti-BI-505 antibodies ([3]; in vivo): no anti-BI-505 antibodies were detected | half-life ([3]; in vivo): 12 to 13 days | half-life corresponding in man ([3]; in vivo): 2-3 weeks | tmax ([3]; in vivo, 0.5 mg/kg): 15 min | tmax ([3]; in vivo, 10 mg/kg): 30 min | binding [4]: negative | MFI (monocyte cells): 176 | MFI [5]: 78 | MFI (Ramos cells): 654 | concentration at which binding peaked (Ramos cells): 0.1 µg/mL | binding to mouse FcγRIV, order (mouse FcγRIV): IgG1 N297Q<IgG4<IgG1

From patent publication US9803013B2, “Biological materials and uses thereof” (BioInvent International AB, priority 2005, dated 2017)
